Source: publication PMC9241633

Tested on: KbvR (Klebsiella pneumoniae)
Assay: MST
Settings: MST: constant labeled KbvR, 2-fold DNA dilution series (16 samples), 30 min incubation at room temperature, measured at 30 C, 80% excitation power, medium LED …

For ompK36 promoter region, the Kd was 450 nM.
